Laboratory results reported in patent US10337022B2, “Methods of increasing root biomass in plants” (Agresearch Limited, priority 2014, dated 2019).

Key:
BZR1 = target: T1, BZR1 (Arabidopsis thaliana, UniProt Q8S307); assay: BiFC interaction with BZR1 in Nicotiana benthamiana leaves; assay type: cell-based; details: fully expanded leaves, co-expressed with cYFP-BZR1
T1 construct: expressed in transfected cells; host or cells: Nicotiana benthamiana leaves (Agrobacterium infiltration)
T1 sequence (Q8S307 1-336): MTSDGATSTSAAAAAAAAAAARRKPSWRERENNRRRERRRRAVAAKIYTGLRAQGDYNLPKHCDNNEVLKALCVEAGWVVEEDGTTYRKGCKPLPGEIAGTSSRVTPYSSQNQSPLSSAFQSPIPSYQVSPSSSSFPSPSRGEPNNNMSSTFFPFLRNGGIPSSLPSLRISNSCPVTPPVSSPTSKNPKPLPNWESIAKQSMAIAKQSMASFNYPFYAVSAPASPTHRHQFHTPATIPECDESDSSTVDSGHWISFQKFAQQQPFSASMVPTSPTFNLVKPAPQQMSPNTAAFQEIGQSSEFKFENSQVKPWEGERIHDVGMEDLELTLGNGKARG
Excerpt: The binary BiFC-Gateway YFP vectors pDEST-VYNE(R)^GW (Venus aa 1-173) and pDEST-VYCE(R)^GW (Venus aa 156-239) with N-terminal fusions, were used to construct the following vectors; pDESTnYFP-BZR1, pDESTnYFP-NINJA, pDESTnYFP-PPD1, pDESTcYFP-BZR1, pDESTcYFP-PPD1, pDESTcYFP-PPD1Δppd, pDESTcYFP-PPD1Δtify and pDESTcYFP-PPD1Δjas*. […] Plasmids for co-immunoprecipitation: A synthesised DNA construct encoding PPD1 with a 3×c-myc C-terminal fusion was sub-cloned into pRSh1 to produce pRSh1-PPD1-3×c-myc, while the NINJA cDNA sequence was sub-cloned into pB7FWG2,0 (Karimi et al 2002, Trends Plant Sci. 7, 193-195) to construct pB7FWG2-NINJA-GFP.
For infiltration Agrobacterium tumefaciens GV3101 strains containing the binary vectors were re-suspended from plates and prepared for transformation as described for the LUC assay. All YFP and expression strains were mixed in ratios of 1:1 (vol/vol) with the addition of strain P19 at 1/10th volume. Five leaf discs were sampled from each infiltrated leaf after 40 h. Two hours prior to sampling for microscopic fluorescence observations leaves were infiltrated with a 1 μg/ml DAPI solution to stain nuclei. YFP fluorescence and DAPI staining was detected using an Olympus Fluoview FV10i confocal laser scanning microscope. Each experiment was repeated twice.

[1] = system: Wild-type (Col-0), Δppd mutant and transgenic PPD-OX seedlings; assay: Hypocotyl length response to exogenous GA or PAC; assay type: in vivo, Arabidopsis
Excerpt: Giberellic acid (GA) treatment is known to reduce levels of the DELLA proteins (including RGA1) which are GA repressors; to determine the relationship between PPD, DELLA and the GA signalling pathway the applicants performed a yeast two-hybrid (Y2H) analysis between PPD and DELLA (RGA1) and applied gibberellic acid (GA) hormone and GA biosynthesis inhibitor (paclobutrazol, PAC) to wild type, Δppd mutant, and the Δppd mutant PPD over expressor (PPD-OX).
For exogenous applications of GA or PAC seeds were surface sterilised with 70% ethanol, 0.01% Triton X-100 for 10 min, followed by 100% ethanol for 5 min, air dried on sterile filter paper, and transferred to media plates containing half-strength MS salts, 1% sucrose and 0.8% agar. Plates were incubated for 5 days at 4° C. in the dark then transferred to 24° C. with a 14 h light/10 h dark daily cycle. Light was provided by fluorescent tubes (Philips TLD 58W/865) at an intensity of 100 μM m^−2 s^−1. Wild-type (Col-0) Δppd mutant and transgenic PPD-OX seedlings were grown for five days on medium with different concentrations of GA (FIG. 10A) or PAC (FIG. 10B). GA (ACROS organics), and PAC (Sigma-Aldrich) were dissolved in ethanol and acetone respectively, filter sterilised and incorporated into media plates. Ethanol or acetone (0.5%) was used for mock treatments. Seedlings were grown at 24° C. under a 14 h light/10 h dark daily cycle for 5 days before hypocotyl lengths were analysed (n=35). Each treatment was repeated twice; error bars=standard error of the mean.

Δppd Arabidopsis plants = assay: Root biomass analysis of Arabidopsis transformants; assay type: in vivo; details: constitutive promoter, approximately 6 weeks in growth cabinet
Method: Seeds from WT and Δppd Arabidopsis plants transformed with T. repens PPD under a constitutive promoter were scarified and sown into potting mix. […] The increase in root biomass was quantified by washing the roots under running water then the attached above ground portion (leaves and stems) was removed and the roots dried at 65° C. for 48 hr then weighed.

ryegrass plants = assay: Root biomass analysis of ryegrass transformants; assay type: in vivo; details: approximately 6 weeks in glasshouse
Method: (§1) An equal number (typically 4-10) of tillers were taken from WT and ryegrass plants transformed with Arabidopsis PPD under a constitutive promoter. Tillers were planted into plastic grow bags containing potting mix and pruned to be of equal height. […] The increase in root biomass was quantified by washing the roots under running water then removing the attached above ground portion (leaves and stems) and drying the roots at 65° C. for 48 hr then weighing the dry weights (Table 2).
as §1, with “one of three root promoters.” for “a constitutive promoter.”, “3 and Table 4)” for “2).”

[2] = system: PEAPOD deletion mutant Δppd Arabidopsis thaliana ecotype Landsberg erecta; assay: Complementation of the Arabidopsis Δppd mutant leaf phenotype; assay type: in vivo; details: optimized PEAPOD coding sequence under CaMV35s promoter, seedlings (FIG. 13)
Excerpt: The functionality of any PEAPOD sequence can be confirmed by complementation of the Arabidopsis Δppd mutant leaf phenotype. Complementation of the Arabidopsis Δppd mutant leaf phenotype was first used to identify the Arabidopsis PPD gene (White 2006). This was seen by a restoration of the wild type flattened leaf phenotype and normal rosette shape as opposed to the domed leaf and the twisting of the rosette to a “propeller” phenotype.
Constructs above can be transformed into Arabidopsis by the floral dip infiltration method (Clough and Bent, 1998 Plant J 16, 735-43). The Δppd line is transformed to express the PPD polypeptides by standard techniques. Transgenic plants are confirmed by standard PCR analysis techniques with a combination of transgene-specific and T-DNA primers.
Complementation of the Δppd line to produce a wild-type leaf and rosette phenotype in T1 seedlings (the off-spring of the infiltrated plant) confirms PEAPOD functionality of the introduced gene, which can be shown in photographs.

## nYFP-PPD1: PPD1 with N-terminal fusion of Venus aa 1-173 for BiFC
BZR1
  BiFC interaction with BZR1: no interaction was observed

## C=C1C[C@]23C[C@@]1(O)CC[C@H]2[C@@]12C=C[C@H](O)[C@@](C)(C(=O)O1)[C@H]2[C@@H]3C(=O)O [GA, gibberellic acid]
[1]; PPD-OX seedlings, 1 μM GA, 5 days
  hypocotyl elongation: increased hypocotyl elongation
[1]; PPD-OX seedlings, up to 10 μM GA
  hypocotyl elongation: hypersensitive elongation
[1]; WT seedlings, 5-50 μM GA, 5 days
  hypocotyl elongation: elongation of the WT hypocotyl occurred in a dose dependent manner
[1]; wild type (WT) seedlings, 1 μM GA, 5 days
  hypocotyl elongation: did not promote elongation
[1]; Δppd seedlings, 1 μM GA, 5 days
  hypocotyl elongation: increased hypocotyl elongation
[1]; Δppd seedlings, up to 5 μM GA
  hypocotyl elongation: hypersensitive elongation

## CC(C)(C)[C@@H](O)[C@@H](Cc1ccc(Cl)cc1)n1cncn1 (racemic) [PAC, paclobutrazol]
[1]; PPD-OX seedlings, PAC beyond 0.1 μM
  hypocotyl length: decrease in hypocotyl length
[1]; PPD-OX seedlings, PAC up to 0.1 μM
  hypocotyl length: relatively insensitive
[1]; wild type seedlings, 0 to 10 μM PAC
  hypocotyl elongation: dose dependent decrease of hypocotyl elongation
[1]; Δppd seedlings, 0 to 10 μM PAC, compared with wild type
  hypocotyl elongation: larger reduction in hypocotyl elongation

B1: P. abies PPD: Picea abies PEAPOD protein, SEQ ID NO: 4 (protein)
chain: MRGGGGADRLPARANLEKPLEDLSHEDIMQLTREDCRRYLIEKGMRRPSWNKSQAIQQVLSLKKLFESGPNDEKRSAATNRPNPDENLKEAASVSLLYGSQPESPSVVFASKDSDTFNLEWLAKTELPVLASQPRHIAQQNVFLSSLSAQQSGAQLTIFYSGNVNVYDDVPAEKAQEIMLLAGSGNYPPSSTCQSTRNTQQNAVRAAYPSNPTNTPFIHGVGPPLATVASSSVMSSPIHKESPITRKASLQRFLEKRKDRSRGKLGAPTISKKPLLMGMFMHPSIVHRQYWTDTAKRKSGKPDIPASISPTRPPHTPRRTSSDEQLSARHARGDISAQGGSLHNSN
modifications: Picea abies
Δppd Arabidopsis plants
  root growth beyond the pot compared to WT plants: increase in root biomass/growth/length/branching

B2: T. repens PPD: Trifolium repens PEAPOD protein, SEQ ID NO: 11 (protein, listed as Trifolium repens)
chain: MNGGSTVSFRSILDKPLNQLTEDDISQLTREDCRRFLKDKGMRRPSWNKSQAIQQVISLKALLEPTDDDLPAPVGVSSAIHHHHHHHPQPPQRNLNEAPVKGSDLDDTGFHTAEDLNKSTSTAVEIPTETNDANVVKSSGGCVASGSFGQMTIFYCGKVNVYDGVSPDKARSIMQLAACPSSFPQDNLLNKNAAVWASPCNIPIDKDVLFPNDTAILQVAQTDKMVEYPLQYREKGSIARDADVEGQASRNASLQRYREKRKDRGRSKGNKLTGITSSNFEMYLNLPVKLHASNGNSSRSSTDSPPQPRLPLVSGGSAENQPKVTLPIDLNDKDVQEC
Ryegrass plants; constitutive promoter
  root growth beyond the grow bag compared to WT plants: increase in root biomass/growth/length/branching
Ryegrass plants; one of three root promoters
  root growth beyond the grow bag compared to WT plants: increase in root biomass/growth/length/branching
[2]
  PEAPOD functionality by complementation of Δppd mutant: functionally equivalent
Δppd Arabidopsis plants
  root growth beyond the pot compared to WT plants: increase in root biomass/growth/length/branching

B3: P. sitchensis PPD: Picea sitchensis PEAPOD protein, SEQ ID NO: 5 (protein, listed as Picea sitchensis)
chain: MRGGERAPGSRPSLDKPLEELTEEDIFQLTREDCRRYLKEKGMRRPSWNKSQAIQQVLSLKSLFESKPNQQSKKPSKHKPATLQFETARDSTFAQSSVSQEQSLGFSWSKEVLDKGTAERQRLCSDSQEAHEIPRLGSKPPQSNTEGKRCAHDGHGRKSAQPLVRLPANFKNDCSNRQSSHTSESQPDTLLRSDSFQQPTAQLTIFYAGMVNVYDDVPLDKA
Ryegrass plants; constitutive promoter
  root growth beyond the grow bag compared to WT plants: increase in root biomass/growth/length/branching
Ryegrass plants; one of three root promoters
  root growth beyond the grow bag compared to WT plants: increase in root biomass/growth/length/branching
[2]
  PEAPOD functionality by complementation of Δppd mutant: functionally equivalent

B4: A. trichopoda PPD: Amborella trichopoda PEAPOD protein, SEQ ID NO: 12 (protein, listed as Amborella trichopoda)
chain: MTAGDGSIRSILDKPLEELTEEDISQLTREDCRRYLKEKGMRRPSWNKYQAIQQVLSLKGLLEGKPCDDNSDVFSHRSPITVIPNVGSMREKEKAVNIADPEISGSHQPNFRREIHETTRERALPASDWPPSQEPVSQMTIFYAGAVNVYNDIPEDKVQAIIYLAGKSDSLQQTNVIRTGPDQCIASAASPSLNDLHSRRIHPTSNITTSQSLRVATSLPVGPHSEVPKTRKTSVQRFLEKRKDRGRLKGTLASGGSSKRGSSCLELYATSRLKSEGVATTTTQSNMNNVVVSPSNPRMPLNPGSCSWVEN
Ryegrass plants; constitutive promoter
  root growth beyond the grow bag compared to WT plants: increase in root biomass/growth/length/branching
Ryegrass plants; one of three root promoters
  root growth beyond the grow bag compared to WT plants: increase in root biomass/growth/length/branching
[2]
  PEAPOD functionality by complementation of Δppd mutant: functionally equivalent
Δppd Arabidopsis plants
  root growth beyond the pot compared to WT plants: increase in root biomass/growth/length/branching
